Results taken from publication PMC10625600, “A TRIM21-based bioPROTAC highlights the therapeutic benefit of HuR degradation”.

Key:
HuR full-length [1] = molecular target: T1, HuR full-length (UniProt Q15717 1-326); assay: fluorescence polarisation; 10 nM probe, 0-2000 nM HuR; FP: 10 mM HEPES pH 7.4, 150 mM NaCl, 3 mM EDTA, 0.05% Tween-20; competition 5 min at room temperature; SPR: Biacore 8K, streptavidin chip, buffer not given in the material; conditions: protein: recombinant; tags: Avi-tag, TEV-cleavable His-tag; label: 3' fluorescein (3FluorT; printed after the 3' G, may add a labelled T); single-stranded
T1 sequence (Q15717 whole entry): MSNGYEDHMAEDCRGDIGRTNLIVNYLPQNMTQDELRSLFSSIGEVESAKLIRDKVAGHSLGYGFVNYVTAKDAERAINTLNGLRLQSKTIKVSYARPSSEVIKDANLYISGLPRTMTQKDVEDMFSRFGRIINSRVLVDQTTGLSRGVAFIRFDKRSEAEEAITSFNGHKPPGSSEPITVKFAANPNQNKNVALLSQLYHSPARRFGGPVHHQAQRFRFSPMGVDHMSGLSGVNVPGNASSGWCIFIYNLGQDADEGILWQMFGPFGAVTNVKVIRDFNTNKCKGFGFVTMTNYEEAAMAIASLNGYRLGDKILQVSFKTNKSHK

HuR full-length [2] = molecular target: T1, HuR full-length; assay: competition fluorescence polarisation; 8 nM HuR, 8 nM Msi1-FITC probe N1 displaced; FP: 10 mM HEPES pH 7.4, 150 mM NaCl, 3 mM EDTA, 0.05% Tween-20; competition 5 min at room temperature; SPR: Biacore 8K, streptavidin chip, buffer not given in the material; conditions: protein: recombinant; tags: Avi-tag, TEV-cleavable His-tag; single-stranded

| Binder | Kd (HuR full-length [1]) [nM] | Ki (HuR full-length [2]) [nM] |
| --- | --- | --- |
| GCUUUUAUUUAUUUUG (ssRNA) [Msi1-FITC RNA probe] | 3.7 | – |
| GCUUUUAUUUAUUUUG (ssRNA) [unlabelled Msi1 RNA] | – | 4 |
